Results published in IntAct's records for PubMed 19040637.

B1: Probable glutaredoxin slr1562 (Synechocystis sp. (strain PCC 6803 / Kazusa)), P74593 (parent)
chain: MANLFNWLPLLSGRQADGIKAKVEIYTWQTCPFCIRAKLLLWWKGVKFIEYKIDGDDQARQAMAARAEGRRTVPQIFVNDQGIGGCDQLYGLDSRGQLDPLLATPPNPA
partner: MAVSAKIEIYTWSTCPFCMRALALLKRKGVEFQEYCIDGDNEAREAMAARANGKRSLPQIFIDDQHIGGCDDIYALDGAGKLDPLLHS
B2: Probable glutaredoxin ssr2061 (Synechocystis sp. (strain PCC 6803 / Kazusa)), P73492 (parent)
chain: B1 partner
partner: B1 chain

Variants of: B1
Conditions: with glrx2_syny3 glrx2, P73492

| effect of a mutation on the interaction | Variant |
| --- | --- |
| disrupting interaction strength | MANLFNWLPLLSGRQADGIKAKVEIYTWQTCPFSIRAKLLLWWKGVKFIEYKIDGDDQARQAMAARAEGRRTVPQIFVNDQGIGGCDQLYGLDSRGQLDPLLATPPNPA [C34S] |
| decreasing interaction strength | MANLFNWLPLLSGRQADGIKAKVEIYTWQTSPFCIRAKLLLWWKGVKFIEYKIDGDDQARQAMAARAEGRRTVPQIFVNDQGIGGCDQLYGLDSRGQLDPLLATPPNPA [C31S] |
| disrupting interaction strength | MANLFNWLPLLSGRQADGIKAKVEIYTWQTCPFCIRAKLLLWWKGVKFIEYKIDGDDQARQAMAARAEGRRTVPQIFVNDQGIGGSDQLYGLDSRGQLDPLLATPPNPA [C86S] |

Variants of: B2
Conditions: with glrx1_syny3 glrx1, P74593

| effect of a mutation on the interaction | Variant |
| --- | --- |
| decreasing interaction strength | MAVSAKIEIYTWSTCPFSMRALALLKRKGVEFQEYCIDGDNEAREAMAARANGKRSLPQIFIDDQHIGGCDDIYALDGAGKLDPLLHS [C18S] |
| decreasing interaction strength | MAVSAKIEIYTWSTCPFCMRAKALLKRKGVEFQEYCIDGDNEAREAMAARANGKRSLPQIFIDDQHIGGCDDIYALDGAGKLDPLLHS [L22K] |
| decreasing interaction strength | MAVSAKIEIYTWSTCPFCMRALALLKRKGVEFQEYSIDGDNEAREAMAARANGKRSLPQIFIDDQHIGGCDDIYALDGAGKLDPLLHS [C36S] |
